Results: the supplement of paper PMC11246515
± gives the standard deviation of the averaged measurements.

Experiment: total protein half-life in vivo (active degradation + dilution); higher = more stable protein
[1] = E. coli NCM3722 delta-clpP delta-lon delta-hslV, growth: N-lim chemostat, doubling time 6 h
[2] = E. coli NCM3722 delta-clpP, growth: N-lim chemostat, doubling time 6 h
[3] = E. coli NCM3722 delta-hslV, growth: N-lim chemostat, doubling time 6 h
[4] = E. coli NCM3722 delta-lon, growth: N-lim chemostat, doubling time 6 h
[5] = E. coli NCM3722 delta-smpB, growth: N-lim chemostat, doubling time 6 h
[6] = wild type E. coli NCM3722, growth: C-lim chemostat, doubling time 3 h
[7] = wild type E. coli NCM3722, growth: C-lim chemostat, doubling time 6 h
[8] = wild type E. coli NCM3722, growth: C-lim chemostat, doubling time 12 h
[9] = wild type E. coli NCM3722, growth: N-lim chemostat, doubling time 6 h
[10] = wild type E. coli NCM3722, growth: N-lim chemostat, doubling time 12 h
[11] = wild type E. coli NCM3722, growth: P-lim chemostat, doubling time 6 h
[12] = wild type E. coli NCM3722, growth: P-lim chemostat, doubling time 12 h

Sequence	total protein half-life in vivo [1] [h]	total protein half-life in vivo [2] [h]	total protein half-life in vivo [3] [h]	total protein half-life in vivo [4] [h]	total protein half-life in vivo [5] [h]	total protein half-life in vivo [6] [h]	total protein half-life in vivo [7] [h]	total protein half-life in vivo [8] [h]	total protein half-life in vivo [9] [h]	total protein half-life in vivo [10] [h]	total protein half-life in vivo [11] [h]	total protein half-life in vivo [12] [h]
MVRIYTLTLAPSLDSATITPQIYPEGKLRCTAPVFEPGGGGINVARAIAHLGGSATAIFPAGGATGEHLVSLLADENVPVATVEAKDWTRQNLHVHVEASGEQYRFVMPGAALNEDEFRQLEEQVLEIESGAILVISGSLPPGVKLEKLTQLISAAQKQGIRCIVDSSGEALSAALAIGNIELVKPNQKELSALVNRELTQPDDVRKAAQEIVNSGKAKRVVVSLGPQGALGVDSENCIQVVPPPVKSQSTVGAGDSMVGAMTLKLAENASLEEMVRFGVAAGSAATLNQGTRLCSHDDTQKIYAYLSR	5.23 ± 0.52	4.483 ± 0.036	4.05 ± 0.088	4.74 ± 0.28	3.8 ± 0.18	3.32 ± 0.21	6.09 ± 0.64	10.7 ± 1.1	4.436 ± 0.02	6.92 ± 0.5	5.84 ± 0.18	11.864 ± 0.0075
MVRRLTSPRLEFEAAAIYEYPEHLRSFLNDLPTRPGVYLFHGESDTMPLYIGKSVNIRSRVLSHLRTPDEAAMLRQSRRISWICTAGEIGALLLEARLIKEQQPLFNKRLRRNRQLCALQLNEKRVDVVYAKEVDFSRAPNLFGLFANRRAALQALQTIADEQKLCYGLLGLEPLSRGRACFRSALKRCAGACCGKESHEEHALRLRQSLERLRVVCWPWQGAVALKEQHPEMTQYHIIQNWLWLGAVNSLEEATTLIRTPAGFDHDGYKILCKPLLSGNYEITELDPANDQRAS	5.53 ± 1.1		1.43		0.89	1.06		1.93	1.6 ± 0.079		1.28	
MVSALYAVLSALLLMKFSFDVVRLRMQYRVAYGDGGFSELQSAIRIHGNAVEYIPIAIVLMLFMEMNGAETWMVHICGIVLLAGRLMHYYGFHHRLFRWRRSGMSATWCALLLMVLANLWYMPWELVFSLR	> 8		> 8	6.32	7.19 ± 0.64	3.51 ± 0.12	7.27	13.7		> 16	6.53 ± 0.12	13.1 ± 1.1
MVSKPFQRPFSLATRLTFFISLATIAAFFAFAWIMIHSVKVHFAEQDINDLKEISATLERVLNHPDETQARRLMTLEDIVSGYSNVLISLADSQGKTVYHSPGAPDIREFTRDAIPDKDAQGGEVYLLSGPTMMMPGHGHGHMEHSNWRMINLPVGPLVDGKPIYTLYIALSIDFHLHYINDLMNKLIMTASVISILIVFIVLLAVHKGHAPIRSVSRQIQNITSKDLDVRLDPQTVPIELEQLVLSFNHMIERIEDVFTRQSNFSADIAHEIRTPITNLITQTEIALSQSRSQKELEDVLYSNLEELTRMAKMVSDMLFLAQADNNQLIPEKKMLNLADEVGKVFDFFEALAEDRGVELRFVGDKCQVAGDPLMLRRALSNLLSNALRYTPTGETIVVRCQTVDHLVQVIVENPGTPIAPEHLPRLFDRFYRVDPSRQRKGEGSGIGLAIVKSIVVAHKGTVAVTSDARGTRFVITLPA	6.87 ± 0.17	6.49 ± 0.093	5.99 ± 1.1	5.94 ± 0.29	5.79 ± 0.62	3.52 ± 0.32	6.15 ± 0.53	12.5 ± 1.1	5.98 ± 0.11	11.78 ± 0.088	6.28 ± 0.53	12.6 ± 0.38
MVSNASALGRNGVHDFILVRATAIVLTLYIIYMVGFFATSGELTYEVWIGFFASAFTKVFTLLALFSILIHAWIGMWQVLTDYVKPLALRLMLQLVIVVALVVYVIYGFVVVWGV [P0AC44]			6.12 ± 0.19			3.03 ± 0.042	6.01 ± 0.4	12 ± 4.5	5.87 ± 0.39			12.5
MVSRKRNSVIYRFASLLLVLMLSACSALQGTPQPAPPVTDHPQEIRRDQTQGLQRIGSVSTMVRGSPDDALAEIKAKAVAAKADYYVVVMVDETIVTGQWYSQAILYRK	5.47 ± 0.3	6.25 ± 1	7.06	6.07 ± 0.52	5.58 ± 0.19	3.29 ± 0.23		11.6 ± 1.4	6.049 ± 0.053		7.24 ± 1.1	14.8
MVSSFTSAPRSGFYYFAQGWKLVSQPGIRRFVILPLLVNILLMGGAFWWLFTQLDVWIPTLMSYVPDWLQWLSYLLWPLAVISVLLVFGYFFSTIANWIAAPFNGLLAEQLEARLTGATPPDTGIFGIMKDVPRIMKREWQKFAWYLPRAIVLLILYFIPGIGQTVAPVLWFLFSAWMLAIQYCDYPFDNHKVPFKEMRTALRTRKITNMQFGALTSLFTMIPLLNLFIMPVAVCGATAMWVDCYRDKHAMWR [P0A6J3]	6.46		5.84	6.33 ± 0.76	6.144 ± 0.028	3.19 ± 0.53	5.49 ± 0.6	12.3	6.67	13.7 ± 1.9	7.18	13.2 ± 0.26
MVTFHTNHGDIVIKTFDDKAPETVKNFLDYCREGFYNNTIFHRVINGFMIQGGGFEPGMKQKATKEPIKNEANNGLKNTRGTLAMARTQAPHSATAQFFINVVDNDFLNFSGESLQGWGYCVFAEVVDGMDVVDKIKGVATGRSGMHQDVPKEDVIIESVTVSE	4.83 ± 0.65	4.38	4.92 ± 0.92	4.83 ± 0.27	4.11 ± 0.046	3.3 ± 0.97	6.03 ± 0.56	9.92 ± 0.88	4.507 ± 0.039	7.49 ± 1.2		11.1 ± 0.3
